Numbering of substitutions follows the chain as printed. Each block holds one binder with its values, some of them ahead of it.
Key:
Human Activin B = biological target: T1, Human Activin B (human); test: BLI, bivalent
T1 chain: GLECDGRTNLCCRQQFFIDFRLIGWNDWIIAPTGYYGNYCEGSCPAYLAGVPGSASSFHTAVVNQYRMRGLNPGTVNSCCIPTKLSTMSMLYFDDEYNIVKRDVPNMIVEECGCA

Human GDF8 = Human GDF8 (human, UniProt O14793); test: BLI, bivalent
Human GDF10 [1] = biological target: T2, Human GDF10 (human, UniProt P55107); test: BLI, bivalent
T2 chain: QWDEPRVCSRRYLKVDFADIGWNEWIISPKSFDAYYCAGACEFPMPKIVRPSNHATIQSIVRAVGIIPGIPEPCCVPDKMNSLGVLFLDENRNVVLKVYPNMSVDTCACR

Human GDNF = biological target: T3, Human GDNF (human, UniProt P39905); test: BLI, bivalent
T3 chain: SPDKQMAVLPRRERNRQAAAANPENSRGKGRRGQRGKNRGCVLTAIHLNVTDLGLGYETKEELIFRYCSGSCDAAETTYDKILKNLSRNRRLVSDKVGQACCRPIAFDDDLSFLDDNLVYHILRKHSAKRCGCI

Human Activin A-Fc [2] = biological target: T4, Human Activin A-Fc (human); test: BLI, bivalent
T4 chain: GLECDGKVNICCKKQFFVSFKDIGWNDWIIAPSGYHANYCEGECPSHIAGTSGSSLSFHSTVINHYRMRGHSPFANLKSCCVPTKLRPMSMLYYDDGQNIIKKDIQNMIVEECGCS

GDF15-Fc = biological target: T5, GDF15-Fc (UniProt Q99988); test: BLI, bivalent
T5 chain: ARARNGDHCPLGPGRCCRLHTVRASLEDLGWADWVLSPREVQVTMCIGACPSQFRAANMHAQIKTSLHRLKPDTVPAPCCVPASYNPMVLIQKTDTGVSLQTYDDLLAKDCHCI

Human GDF11 [3] = biological target: T6, Human GDF11 (human, UniProt O95390); test: BLI, bivalent
T6 chain: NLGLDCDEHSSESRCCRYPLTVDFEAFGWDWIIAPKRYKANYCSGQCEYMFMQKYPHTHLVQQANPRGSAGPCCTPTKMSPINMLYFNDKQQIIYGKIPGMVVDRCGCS

Human Follistatin 300 = biological target: T7, Human Follistatin 300 (human, UniProt P19883); test: BLI, bivalent
T7 chain: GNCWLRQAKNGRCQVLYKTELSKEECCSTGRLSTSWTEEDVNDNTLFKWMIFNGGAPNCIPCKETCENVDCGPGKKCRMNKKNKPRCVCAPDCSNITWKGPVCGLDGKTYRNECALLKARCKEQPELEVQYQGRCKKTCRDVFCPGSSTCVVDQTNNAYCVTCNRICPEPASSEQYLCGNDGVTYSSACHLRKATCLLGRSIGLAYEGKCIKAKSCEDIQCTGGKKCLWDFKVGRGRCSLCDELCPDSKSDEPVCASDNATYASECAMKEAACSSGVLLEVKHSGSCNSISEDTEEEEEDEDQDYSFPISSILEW

BMP10 = biological target: T8, BMP10 (UniProt O95393); test: BLI, bivalent
T8 chain: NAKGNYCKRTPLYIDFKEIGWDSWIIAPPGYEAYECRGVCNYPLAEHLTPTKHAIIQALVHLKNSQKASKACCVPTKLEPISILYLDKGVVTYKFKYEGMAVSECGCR

BMP9 = biological target: T9, BMP9 (UniProt Q9UK05); test: BLI, bivalent
T9 chain: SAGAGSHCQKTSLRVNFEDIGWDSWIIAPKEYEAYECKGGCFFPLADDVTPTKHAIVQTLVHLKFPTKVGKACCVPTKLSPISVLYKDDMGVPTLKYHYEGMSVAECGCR

[4] = biological target: T10, Human Activin A (biotinylated) (human); test: SPR, 25C, monovalent
T10 chain: T4 chain

Human Activin A-Fc [5] = biological target: T4, Human Activin A-Fc; test: BLI, monovalent
Human GDF10 [6] = biological target: T2, Human GDF10; test: BLI, bivalent
Human GDF11 [7] = biological target: T6, Human GDF11; test: BLI, bivalent

Sequence of Human GDF8 (O14793 267-375): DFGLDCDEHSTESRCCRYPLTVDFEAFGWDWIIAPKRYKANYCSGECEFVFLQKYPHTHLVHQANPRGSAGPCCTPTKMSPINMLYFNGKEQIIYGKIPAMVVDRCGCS

Kd [4]: 83.2 pM
Kd (Human Activin A-Fc [5]): 963 pM
B2: Clone C Fab (antibody, V domains shown)
VH: QLQLQESGPGLVKPSETLSLTCTVSGGSISSYDPYWGWIRQPPGKGLEWIGSISYSGSTLYNPSLKSRVTISVDTSKNQFSLKLSSVTAADTAVYYCAREVSYLGSRRYGMDVWGQGTTVTVSS
VL: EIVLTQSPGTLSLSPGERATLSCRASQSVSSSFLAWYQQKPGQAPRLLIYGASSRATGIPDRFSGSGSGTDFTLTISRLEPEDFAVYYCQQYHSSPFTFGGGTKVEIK

Kd (Human Activin B): 766 pM
binding result (Human GDF10 [6]): no binding
binding result (Human GDF8): no binding
binding result (Human GDNF): no binding
binding result (Human GDF11 [7]): no binding
Kd (Human Activin A-Fc [2]): 545 pM
binding result (GDF15-Fc): no binding
binding result (Human Follistatin 300): no binding
binding result (BMP10): no binding
binding result (BMP9): no binding
B3: Clone B IgG (antibody, V domains shown)
VH: QLQLQESGPGLVKPSETLSLTCTVSGGSISSQQYYWGWIRQPPGKGLEWIGSISYAASTYYNPSLKSRVTISVDTSKNQFSLKLSSVTAADTAVYYCAREGYDSYSYDVWGQGTMVTVSS
VL: EIVLTQSPATLSVSPGERATLSCRASQSVGSNLAWYQQKPGQAPRLLIYGASTRATGIPARFSGSGSGTEFTLTISSLQSEDFAVYYCQQYNFYPPITFGGGTKVEIK

Kd (Human Activin B): 760 pM
binding result (Human GDF10 [6]): no binding
binding result (Human GDF8): no binding
binding result (Human GDNF): no binding
binding result (Human GDF11 [7]): no binding
Kd (Human Activin A-Fc [2]): 661 pM
binding result (GDF15-Fc): no binding
binding result (Human Follistatin 300): no binding
binding result (BMP10): no binding
binding result (BMP9): no binding
B5: Clone A IgG (antibody, V domains shown)
VH: B3 VH with Q32S, Q33S, A56S, A57G
VL: B3 VL

Further lines, the binder ahead of its results:

B1: Clone C IgG (antibody, V domains shown)
VH: B2 VH
VL: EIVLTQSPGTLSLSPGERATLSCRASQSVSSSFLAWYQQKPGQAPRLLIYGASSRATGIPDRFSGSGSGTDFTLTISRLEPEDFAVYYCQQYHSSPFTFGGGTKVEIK
Kd (Human Activin B): 861 pM
binding result (Human GDF8): no binding
Kd (Human GDF10 [1]): 25800 pM
binding result (Human GDNF): no binding
Kd (Human Activin A-Fc [2]): 552 pM
binding result (GDF15-Fc): no binding
Kd (Human GDF11 [3]): 8410 pM
binding result (Human Follistatin 300): no binding
binding result (BMP10): no binding
binding result (BMP9): no binding

B4: Clone B Fab (antibody, V domains shown)
VH: B3 VH
VL: B3 VL
Kd [4]: 903 pM
Kd (Human Activin A-Fc [5]): 2100 pM

B6: Clone A Fab (antibody, V domains shown)
VH: B3 VH with Q32S, Q33S, A56S, A57G
VL: B3 VL
Kd [4]: 1640 pM
Kd (Human Activin A-Fc [5]): 3550 pM
